One block for each binder: values may come before it.
Tests used:
[1] = target: activated blood coagulation factor IX (FIXa) (UniProt P00740 47-461, limits assumed); test: cell-based or functional assay
[2] = target: blood coagulation factor X (FX) (UniProt P00742 41-488, limits assumed); test: cell-based or functional assay
Sequence of blood coagulation factor X (FX) (P00742 41-488 limits assumed): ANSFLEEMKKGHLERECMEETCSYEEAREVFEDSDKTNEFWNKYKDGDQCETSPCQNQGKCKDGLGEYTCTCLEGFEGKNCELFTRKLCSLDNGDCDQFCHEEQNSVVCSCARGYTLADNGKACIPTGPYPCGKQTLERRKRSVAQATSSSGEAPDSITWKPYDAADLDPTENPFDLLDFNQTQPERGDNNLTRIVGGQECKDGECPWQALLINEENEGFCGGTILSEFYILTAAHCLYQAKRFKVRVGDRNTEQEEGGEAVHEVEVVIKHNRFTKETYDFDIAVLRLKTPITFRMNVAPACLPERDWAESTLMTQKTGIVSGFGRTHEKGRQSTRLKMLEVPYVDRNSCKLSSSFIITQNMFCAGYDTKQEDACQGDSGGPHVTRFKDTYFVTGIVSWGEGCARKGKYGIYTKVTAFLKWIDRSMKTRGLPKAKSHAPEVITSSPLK

Sequence of activated blood coagulation factor IX (FIXa) (P00740 47-461 limits assumed): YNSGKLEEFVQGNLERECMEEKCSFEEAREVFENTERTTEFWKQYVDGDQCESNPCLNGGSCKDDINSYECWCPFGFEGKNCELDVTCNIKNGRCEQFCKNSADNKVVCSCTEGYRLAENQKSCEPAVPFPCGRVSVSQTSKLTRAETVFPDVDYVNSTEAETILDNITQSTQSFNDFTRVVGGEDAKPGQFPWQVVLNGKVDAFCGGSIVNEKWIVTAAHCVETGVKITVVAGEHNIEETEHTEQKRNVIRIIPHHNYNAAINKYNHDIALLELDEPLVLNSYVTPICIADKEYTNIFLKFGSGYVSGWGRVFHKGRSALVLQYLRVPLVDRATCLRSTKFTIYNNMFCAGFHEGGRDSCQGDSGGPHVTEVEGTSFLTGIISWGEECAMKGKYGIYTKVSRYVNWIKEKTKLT

biological activity relative to the Emicizumab standard solution (chromogenic assay: FXa produced in the presence of FIXa, FX and phospholipid) [1]: 18% | biological activity relative to the Emicizumab standard solution (chromogenic assay: FXa produced in the presence of FIXa, FX and phospholipid) [2]: 18%
B1: Q-CDR-Clipped Variants (variants of Emicizumab) (bispecific antibody, human IgG4 S228P, kappa)
heavy 1: QVQLVESGGGLVQPGGSLRLSCAASGFTFSYYDIQWVRQAPGKGLEWVSSISPSGQSTYYRREVKGRFTISRDNSKNTLYLQMNSLRAEDTAVYYCARRTGREYGGGWYFDYWGQGTLVTVSSASTKGPSVFPLAPCSRSTSESTAALGCLVKDYFPEPVTVSWNSGALTSGVHTFPAVLQSSGLYSLSSVVTVPSSSLGTQTYTCNVDHKPSNTKVDKRVESKYGPPCPPCPAPEFLGGPSVFLFPPKPKDTLMISRTPEVTCVVVDVSQEDPEVQFNWYVDGVEVHNAKTKPREEQYNSTYRVVSVLTVLHQDWLNGKEYKCKVSNKGLPSSIEKTISKAKGQPREPQVYTLPPSQKEMTKNQVSLTCLVKGFYPSDIAVEWESNGQPENNYKTTPPVLDSDGSFFLYSKLTVDKSRWQEGNVFSCSVMHEALHNRYTQKSLSLSP
heavy 2: QVQLVQSGSELKKPGASVKVSCKASGYTFTDNNMDWVRQAPGQGLEWMGDINTRSGGSIYNEEFQDRVIMTVDKSTDTAYMELSSLRSEDTATYHCARRKSYGYYLDEWGEGTLVTVSSASTKGPSVFPLAPCSRSTSESTAALGCLVKDYFPEPVTVSWNSGALTSGVHTFPAVLQSSGLYSLSSVVTVPSSSLGTQTYTCNVDHKPSNTKVDKRVESKYGPPCPPCPAPEFLGGPSVFLFPPKPKDTLMISRTPEVTCVVVDVSQEDPEVQFNWYVDGVEVHNAKTKPREEQYNSTYRVVSVLTVLHQDWLNGKEYKCKVSNKGLPSSIEKTISKAKGQPREPQVYTLPPSQEEMTKNQVSLTCLVKGFYPSDIAVEWESNGQPENNYKTTPPVLDSDGSFFLYSKLTVDKSRWQEGNVFSCSVMHEALHNHYTQESLSLSP
light: DIQMTQSPSSLSASVGDRVTITCKASRNIERQLAWYQQKPGQAPELLIYQASRKESGVPDRFSGSRYGTDFTLTISSLQPEDIATYYCQQYSDPPLTFGGGTKVEIKRTVAAPSVFIFPPSDEQLKSGTASVVCLLNNFYPREAKVQWKVDNALQSGNSQESVTEQDSKDSTYSLSSTLTLSKADYEKHKVYACEVTHQGLSSPVTKSFNRGEC
modifications: Q chain: R at the 61st position from the N terminus (Kabat 60), or YYR at the 59th to 61st positions (Kabat 58 to 60), deleted and the chain cleaved at the deletion site; the N-terminal and C-terminal fragments are joined via a disulfide bond

biological activity relative to the Emicizumab standard solution (chromogenic assay: FXa produced in the presence of FIXa, FX and phospholipid) [1]: 8% | biological activity relative to the Emicizumab standard solution (chromogenic assay: FXa produced in the presence of FIXa, FX and phospholipid) [2]: 8%
B2: Protected Disulfide Isoforms (isoforms of Emicizumab) (bispecific antibody, human IgG4 S228P, kappa)
heavy 1: B1 heavy 1
heavy 2: B1 heavy 2
light: B1 light

Source: patent US20250382390A1 (Chugai, published 2025)
